From patent US20220017591A1 (AstraZeneca / MedImmune, published 2022) come the findings set out here.

Experiment in all cases: cell-based or functional assay
Assay [1] has as its target T1, human RXFP1 (human, UniProt Q9HBX9 1-757).
T1 sequence (looked up): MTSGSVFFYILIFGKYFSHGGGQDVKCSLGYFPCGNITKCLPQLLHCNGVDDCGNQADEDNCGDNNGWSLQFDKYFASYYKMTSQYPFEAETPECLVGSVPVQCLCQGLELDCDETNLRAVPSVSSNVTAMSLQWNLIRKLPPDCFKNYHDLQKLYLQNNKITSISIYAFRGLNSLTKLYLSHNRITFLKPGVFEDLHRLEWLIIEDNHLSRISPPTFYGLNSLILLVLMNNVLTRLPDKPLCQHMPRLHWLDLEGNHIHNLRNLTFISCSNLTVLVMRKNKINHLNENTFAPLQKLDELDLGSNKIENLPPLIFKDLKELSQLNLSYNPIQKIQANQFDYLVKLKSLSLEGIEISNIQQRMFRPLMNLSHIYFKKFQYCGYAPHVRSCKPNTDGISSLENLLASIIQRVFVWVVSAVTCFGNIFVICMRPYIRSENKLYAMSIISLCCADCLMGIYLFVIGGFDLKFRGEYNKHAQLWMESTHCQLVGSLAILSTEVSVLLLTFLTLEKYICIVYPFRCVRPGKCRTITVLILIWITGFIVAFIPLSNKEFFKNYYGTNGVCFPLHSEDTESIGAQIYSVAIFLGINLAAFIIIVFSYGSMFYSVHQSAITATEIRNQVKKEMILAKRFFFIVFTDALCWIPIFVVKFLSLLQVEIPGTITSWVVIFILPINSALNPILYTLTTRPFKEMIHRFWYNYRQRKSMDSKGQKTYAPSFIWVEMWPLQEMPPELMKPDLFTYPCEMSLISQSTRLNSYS

The next assay addresses human RXFP2 (human, UniProt Q8WXD0 1-754).
The target in a further assay is T2, mouse RXFP1 (mouse, UniProt Q6R6I7 1-758).
T2 sequence (looked up): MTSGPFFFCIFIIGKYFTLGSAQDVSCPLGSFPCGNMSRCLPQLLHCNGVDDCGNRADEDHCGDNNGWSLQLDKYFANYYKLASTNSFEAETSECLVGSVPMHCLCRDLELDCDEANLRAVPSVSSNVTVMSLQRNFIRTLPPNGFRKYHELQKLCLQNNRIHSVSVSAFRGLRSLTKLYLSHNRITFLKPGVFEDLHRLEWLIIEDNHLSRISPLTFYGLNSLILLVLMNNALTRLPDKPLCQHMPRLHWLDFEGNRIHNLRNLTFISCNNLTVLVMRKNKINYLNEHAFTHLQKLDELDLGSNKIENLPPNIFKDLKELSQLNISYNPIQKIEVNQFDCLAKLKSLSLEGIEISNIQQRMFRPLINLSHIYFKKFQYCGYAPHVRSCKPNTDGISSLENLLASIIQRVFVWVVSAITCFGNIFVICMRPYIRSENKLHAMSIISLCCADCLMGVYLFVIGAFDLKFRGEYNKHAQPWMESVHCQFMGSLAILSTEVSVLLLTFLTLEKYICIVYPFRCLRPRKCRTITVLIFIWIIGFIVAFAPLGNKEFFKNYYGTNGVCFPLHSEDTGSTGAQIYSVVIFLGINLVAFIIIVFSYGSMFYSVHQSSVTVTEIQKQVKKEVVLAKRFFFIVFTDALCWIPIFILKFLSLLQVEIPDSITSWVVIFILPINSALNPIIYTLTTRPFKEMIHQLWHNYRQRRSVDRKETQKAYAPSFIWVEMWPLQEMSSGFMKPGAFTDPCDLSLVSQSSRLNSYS

Assay [2] concerns the target T1, human RXFP1. This is another data set of the same source.

Sequence of human RXFP2 (Q8WXD0 whole entry): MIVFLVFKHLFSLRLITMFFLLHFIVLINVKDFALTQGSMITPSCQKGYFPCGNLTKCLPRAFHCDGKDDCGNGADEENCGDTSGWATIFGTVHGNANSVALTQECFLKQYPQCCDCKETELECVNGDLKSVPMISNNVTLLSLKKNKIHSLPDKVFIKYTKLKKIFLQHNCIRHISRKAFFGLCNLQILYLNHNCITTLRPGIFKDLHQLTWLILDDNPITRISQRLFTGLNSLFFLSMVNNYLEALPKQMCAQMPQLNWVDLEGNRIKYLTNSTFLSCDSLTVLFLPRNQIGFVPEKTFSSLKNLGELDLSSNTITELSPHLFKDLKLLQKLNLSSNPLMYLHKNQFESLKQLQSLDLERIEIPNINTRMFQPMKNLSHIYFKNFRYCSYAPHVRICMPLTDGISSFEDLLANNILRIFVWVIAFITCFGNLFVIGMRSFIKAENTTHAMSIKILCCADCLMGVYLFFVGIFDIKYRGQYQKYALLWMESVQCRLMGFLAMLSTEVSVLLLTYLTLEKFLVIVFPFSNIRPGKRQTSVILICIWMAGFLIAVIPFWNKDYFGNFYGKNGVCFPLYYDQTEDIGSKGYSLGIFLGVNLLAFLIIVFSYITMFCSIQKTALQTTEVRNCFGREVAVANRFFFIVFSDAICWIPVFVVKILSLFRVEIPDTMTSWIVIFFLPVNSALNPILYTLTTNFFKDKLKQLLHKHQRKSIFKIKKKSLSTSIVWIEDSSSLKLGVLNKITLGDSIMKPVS

B1: RELAX0117 (Fc fusion)
chain 1: QLYSALANKCCHVGCTKRSLARFCAAAGGGGSGGGGSGGGGSGGGGSACPPCPAPEFEGGPSVFLFPPKPKDTLMISRTPEVTCVVVDVSHEDPEVKFNWYVDGVEVHNAKTKPREEQYNSTYRVVSVLTVLHQDWLNGKEYKCKVSNKALPASIEKTISKAKGQPREPQVYTLPPCREEMTKNQVSLWCLVKGFYPSDIAVEWESNGQPENNYKTTPPVLDSDGSFFLYSKLTVDKSRWQQGNVFSCSVMHEALHNHYTQKSLSLSPGGGGGSGGGGSGGGGSGGGGGSQLYSALANKCCHVGCTKRSLARFC
chain 2: SWMEEVIKLCGRELVRAQIAICGMSTWSAAAGGGGSGGGGSGGGGSGGGGSACPPCPAPEFEGGPSVFLFPPKPKDTLMISRTPEVTCVVVDVSHEDPEVKFNWYVDGVEVHNAKTKPREEQYNSTYRVVSVLTVLHQDWLNGKEYKCKVSNKALPASIEKTISKAKGQPREPQVCTLPPSREEMTKNQVSLSCAVKGFYPSDIAVEWESNGQPENNYKTTPPVLDSDGSFFLVSKLTVDKSRWQQGNVFSCSVMHEALHNHYTQKSLSLSPGGGGGSGGGGSGGGGSGGGGGSSWMEEVIKLCGRELVRAQIAICGMSTWS
For B1, the “biological activity (EC50), cAMP assay” value with human RXFP1 [1] is ~10 pM. The “EC50 hRXFP2 (M), cAMP assay” value in the assay with human RXFP2 stood at 1.61e-08 M. For the same molecule, the “EC50 mRXFP1 (M), cAMP assay” value in the assay with mouse RXFP1 was determined as 1.74e-11 M. For the same molecule, the “EC50 hRXFP1 (M), cAMP assay” value with human RXFP1 [2] stood at 1.06e-11 M.

B2: RELAX0021 (Fc fusion)
chain 1: GGAGGACPPCPAPEFEGGPSVFLFPPKPKDTLMISRTPEVTCVVVDVSHEDPEVKFNWYVDGVEVHNAKTKPREEQYNSTYRVVSVLTVLHQDWLNGKEYKCKVSNKALPASIEKTISKAKGQPREPQVYTLPPSREEMTKNQVSLWCLVKGFYPSDIAVEWESNGQPENNYKTTPPVLDSDGSFFLYSKLTVDKSRWQQGNVFSCSVMHEALHNHYTQKSLSLSPGGGGGSGGGGSGGGGSGGGGGSQLYSALANKCCHVGCTKRSLARFC
chain 2: GGAGGACPPCPAPEFEGGPSVFLFPPKPKDTLMISRTPEVTCVVVDVSHEDPEVKFNWYVDGVEVHNAKTKPREEQYNSTYRVVSVLTVLHQDWLNGKEYKCKVSNKALPASIEKTISKAKGQPREPQVYTLPPSREEMTKNQVSLSCAVKGFYPSDIAVEWESNGQPENNYKTTPPVLDSDGSFFLVSKLTVDKSRWQQGNVFSCSVMHEALHNHYTQKSLSLSPGGGGGSGGGGSGGGGSGGGGGSSWMEEVIKLCGRELVRAQIAICGMSTWS
On to B2, for which, in the assay with human RXFP1 [1], the “biological activity (EC50), cAMP assay” value is ~80 pM. The “EC50 mRXFP1 (M), cAMP assay” value with mouse RXFP1 is 4.14e-11 M. In addition, in the assay with human RXFP1 [2], the “EC50 hRXFP1 (M), cAMP assay” value came out at 8.27e-11 M.
